Data: patent publication US20050085442A1

Tests used:
[1] = biological target: bovine airway smooth muscle cell mannose receptor (bovine); experiment: cell-based or functional assay
[2] = biological target: human airway smooth muscle cell mannose receptor (huASMC-MR) (human) (UniProt Q9UBG0); experiment: flow cytometry (cell sorting) of bovine airway smooth muscle cells transfected with full-length huASMC-MR cDNA plasmid; vector control 57/1718 cells

| Substance | b hexosaminidase-induced mitogenesis in bovine ASMC, inhibition by antisense huASMC-MR morpholino oligonucleotides (5 µM) [1] [%] | percent of cells with increased fluorescence intensity [2] [%] |
| --- | --- | --- |
| b hexosaminidase A (human placental β-hexosaminidase, Sigma) (from UniProt P06865 89-529; P07686 122-556) (enzyme) | 37 |  |
| FITC-ManBSA (FITC-labelled mannosylated bovine serum albumin) (from UniProt P02769 25-607) |  | 61 |
